Six molecules from patent US20240228562A1 (Pieris, published 2024) can be followed below.

The target in experiment [1] is T1, recombinant rat CTGF protein (R&D Systems) (rat, UniProt Q9R1E9 25-347).
T1 construct: Bought; also called rCTGF
T1 sequence: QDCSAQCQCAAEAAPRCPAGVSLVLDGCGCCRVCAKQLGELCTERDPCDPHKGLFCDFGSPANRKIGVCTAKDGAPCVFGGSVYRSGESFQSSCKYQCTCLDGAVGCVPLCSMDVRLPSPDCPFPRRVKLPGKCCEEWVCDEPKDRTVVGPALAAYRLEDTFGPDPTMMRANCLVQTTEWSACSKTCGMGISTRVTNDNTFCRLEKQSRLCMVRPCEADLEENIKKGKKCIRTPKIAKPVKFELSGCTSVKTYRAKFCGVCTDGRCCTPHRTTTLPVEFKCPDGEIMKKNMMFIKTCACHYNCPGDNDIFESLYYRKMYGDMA
The experiment can be described thus: SPR (Biacore). Summed up:
(§1)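 Lipocalin muteins injected at 25 °C over CTGF either Fc-tagged and captured by anti-human IgG-Fc (0.25-2.5 μg/mL in HBS-EP+, 180 s) or amine-coupled directly to a CM5 chip. Association 180 s, dissociation 900-3600 s, flow 30 μL/min.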
In general terms: SPR reads the build-up and loss of mass on a sensor chip optically.

Experiment [2] deals with T2, recombinant human CTGF-Fc protein (Creative Biomart) (human).
T2 construct: Bought; also called human CTGF with a human IgG1 Fc Tag
The experiment can be described thus: SPR (Biacore). Summed up:
as §1

The target of another experiment is T3, huWISP-3 (human, UniProt O95389 24-354, limits assumed).
T3 construct: also called human WISP-3 (CCN6)
T3 sequence (looked up): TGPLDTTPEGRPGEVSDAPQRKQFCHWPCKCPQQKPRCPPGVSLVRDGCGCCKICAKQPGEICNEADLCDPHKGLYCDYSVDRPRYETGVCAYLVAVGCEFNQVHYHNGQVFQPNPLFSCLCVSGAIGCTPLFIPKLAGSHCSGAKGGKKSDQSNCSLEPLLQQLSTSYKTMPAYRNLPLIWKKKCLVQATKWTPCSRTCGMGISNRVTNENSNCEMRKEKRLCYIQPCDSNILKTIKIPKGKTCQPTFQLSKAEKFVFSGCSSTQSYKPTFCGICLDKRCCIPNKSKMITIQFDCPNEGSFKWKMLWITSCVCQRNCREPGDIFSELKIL
The experiment can be described thus: ELISA, coated CCN protein. On the procedure: (§2) Binding of muteins to closely related proteins of CTGF was tested by an ELISA assay. In detail, a 384-well plate suitable for fluorescence measurements (Greiner FLUOTRAC™ 600, black flat bottom, high-binding) was coated with 20 μl of human CTGF or the other members of the CCN protein family at a concentration of 1 μg/ml in PBS over night at 4° C. After washing with PBS with 0.05% Tween 20, wells were blocked with 100 μl blocking buffer containing 0.1% Tween 20 and 2% BSA (PBS-T/BSA) for 1 h at room temperature. 20 μl of serially diluted muteins starting at 1000 nM were incubated in PBS-T/BSA for 1 h at room temperature (RT).
(§3) The residual supernatants were discarded and 20 μl HRP-labeled anti-NGAL or anti-Strep-Tag antibody was added at a predetermined optimal concentration in PBS-T/BSA and incubated for 1 h at RT. After washing, 20 μl fluorogenic HRP substrate (QuantaBlu, Thermo) was added to each well, and the reaction was allowed to proceed for 2 to 60 minutes. The fluorescence intensity of every well on the plate was read using a fluorescence microplate reader (Tecan). When the signal for human CTGF approached saturation, the cross reactivity to the other proteins was assessed.

The next experiment concerns the target T4, huCYR61 (human, UniProt O00622 25-381, limits assumed).
T4 construct: also called human CYR61 (CCN1)
T4 sequence (looked up): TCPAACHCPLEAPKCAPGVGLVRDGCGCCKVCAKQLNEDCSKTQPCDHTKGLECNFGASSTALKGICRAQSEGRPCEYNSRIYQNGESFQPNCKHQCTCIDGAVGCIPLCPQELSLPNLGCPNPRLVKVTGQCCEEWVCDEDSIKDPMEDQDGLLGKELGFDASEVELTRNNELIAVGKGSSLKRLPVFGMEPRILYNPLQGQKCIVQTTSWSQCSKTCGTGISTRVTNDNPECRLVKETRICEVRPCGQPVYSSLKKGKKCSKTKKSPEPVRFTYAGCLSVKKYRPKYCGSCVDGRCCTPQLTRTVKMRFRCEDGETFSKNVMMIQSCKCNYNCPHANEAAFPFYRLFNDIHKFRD
Nature of the experiment: ELISA, coated CCN protein. As for the experimental part: as §2, §3
(In general: An ELISA detects its analyte on a solid surface through an enzyme-linked reagent.)

A further experiment addresses T5, huWISP-2 (human, UniProt O76076 24-250, limits assumed).
T5 construct: also called human WISP-2 (CCN5)
T5 sequence (looked up): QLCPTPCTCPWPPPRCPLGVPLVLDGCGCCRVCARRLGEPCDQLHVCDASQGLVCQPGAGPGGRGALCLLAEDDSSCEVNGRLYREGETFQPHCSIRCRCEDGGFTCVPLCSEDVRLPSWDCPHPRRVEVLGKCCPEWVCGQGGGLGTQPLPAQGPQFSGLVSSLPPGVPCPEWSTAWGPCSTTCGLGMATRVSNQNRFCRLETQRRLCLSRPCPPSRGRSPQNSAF
Nature of the experiment: ELISA, coated CCN protein. As for the experimental part: as §2, §3

T2 sequence (chain, as listed by the source limits assumed): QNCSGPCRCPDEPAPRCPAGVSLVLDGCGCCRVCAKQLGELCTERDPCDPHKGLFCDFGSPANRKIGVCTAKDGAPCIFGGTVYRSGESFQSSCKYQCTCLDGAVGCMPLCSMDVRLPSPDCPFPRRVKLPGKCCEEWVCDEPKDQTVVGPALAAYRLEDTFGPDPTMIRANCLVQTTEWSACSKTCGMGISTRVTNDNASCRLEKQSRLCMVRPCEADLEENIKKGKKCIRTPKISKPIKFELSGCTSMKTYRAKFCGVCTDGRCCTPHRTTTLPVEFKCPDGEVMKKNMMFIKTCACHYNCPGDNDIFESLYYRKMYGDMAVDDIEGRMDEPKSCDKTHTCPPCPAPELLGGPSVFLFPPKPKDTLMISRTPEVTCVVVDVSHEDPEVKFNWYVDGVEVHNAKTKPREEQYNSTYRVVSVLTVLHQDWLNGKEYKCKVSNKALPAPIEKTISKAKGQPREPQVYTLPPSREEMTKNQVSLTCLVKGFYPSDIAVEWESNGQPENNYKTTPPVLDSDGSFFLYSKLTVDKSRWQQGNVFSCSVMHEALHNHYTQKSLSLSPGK

B1: lipocalin mutein of SEQ ID NO: 29 (designed binder)
chain: QDSTSDLIPAPPLSKVPLQQNFQDNQFHGKWYVVGWAGNIKLREDKDPFKMSATIYELKEDKSYNVTEVVFEQKKCHYIIKTFVPGSQPGEFTLGDIKSPPGETSSLVRVVSTNYNQHAMVFFKKVFQNREFFWITLYGRTKELTSELKENFIRFSKSLGLPENHIVFPVPIDQCIDGSAWSHPQFEK
notes: Parent hNGAL mutein; also called hNGAL mutein
Turning to B1, the equilibrium dissociation constant (Kd) in experiment [1] is 18 nM; in experiment [2] it was 11.2 nM. Moreover, the koff in experiment [1] came out at 0.00317 s⁻¹; in experiment [2], 0.00112 s⁻¹. In addition, the kon in experiment [1] was found to be 176000 M⁻¹ s⁻¹; in experiment [2], 100000 M⁻¹ s⁻¹. The binding result in the experiment with huWISP-3, with huCYR61 and with huWISP-2 was “no binding (tested: dilutions starting at 1000 nM)” each time.

B2: lipocalin mutein of SEQ ID NO: 7 (designed binder)
chain: QDSTSDLIPAPPLSKVPLQQNFQDNQFHGKWYVVGLAGNYGLRTDKRPSKMFATIYELKEDKSYDVTSVRFEQERCHYTIRTFVPGSQPGEFTTGSIKSRPGQTSSLVRVVSTNYNQHAMVFFKSVIQNREYFAITLYGRTKELTSELKENFIRFSKSLGLPENHIVFPVPIDQCIDGSAWSHPQFEK
notes: as for B1
As to B2, the results for the dissociation constant Kd in experiment [1] and in experiment [2] were 62.8 nM and 60.2 nM, respectively. The off-rate constant (koff) in experiment [1] was found to be 0.00754 s⁻¹; in experiment [2], 0.00587 s⁻¹. Further, the values for the kon in experiment [1] and in experiment [2] were 120000 M⁻¹ s⁻¹ and 97600 M⁻¹ s⁻¹, respectively. Also, the binding result in the experiment with huWISP-3, in the experiment with huCYR61 and with huWISP-2 was “no binding (tested: dilutions starting at 1000 nM)” throughout.

B3: lipocalin mutein of SEQ ID NO: 3 (designed binder)
chain: QDSTSDLIPAPPLSKVPLQQNFQDNQFHGKWYVVGRAGNNRLREDKDPPKMWATIYELKEDKSYNVTHVHFMTKKCRYIIDTFVPGSQPGEFTLGAIKSGPGMTSPLVRIVSTNYNQHAMVFFKWVNQNREWFTITLYGRTKELTSELKENFIRFSKSLGLPENHIVFPVPIDQCIDGSAWSHPQFEK
notes: as for B1
Consider B3, for which the Kd is 39.3 nM in experiment [1] and 37.5 nM in experiment [2]. Moreover, the koff in experiment [1] was 0.0117 s⁻¹; in experiment [2], 0.00749 s⁻¹. Moreover, the kon was determined as 297000 M⁻¹ s⁻¹ in experiment [1] and 200000 M⁻¹ s⁻¹ in experiment [2]. The binding result with huWISP-3, with huCYR61 and with huWISP-2 was “no binding (tested: dilutions starting at 1000 nM)” throughout.

B4: lipocalin mutein of SEQ ID NO: 9 (designed binder)
chain: QDSTSDLIPAPPLSKVPLQQNFQDNQFHGKWYVVGLAGNKILRIDKQPAKMFATIYELKEDKSYDVTSVRFEARSCSYTIKTFVPGSQPGEFTAGNIKSAPGQTSTLVRVVSTNYNQHAMVFFKHVSQNRETFVITLYGRTKELTSELKENFIRFSKSLGLPENHIVFPVPIDQCIDGSAWSHPQFEK
notes: as for B1
B4: the Kd is 16 nM in experiment [1] and 12.8 nM in experiment [2]. The results for the koff in experiment [1] and in experiment [2] were 0.00169 s⁻¹ and 0.00102 s⁻¹, respectively. For the same molecule, the values for the kon in experiment [1] and in experiment [2] were 105000 M⁻¹ s⁻¹ and 79800 M⁻¹ s⁻¹, respectively. For the same molecule, the binding result with huWISP-3, with huCYR61 and with huWISP-2 was “no binding (tested: dilutions starting at 1000 nM)” in each case.

B5: lipocalin mutein of SEQ ID NO: 15 (designed binder)
chain: QDSTSDLIPAPPLSKVPLQQNFQDNQFQGKWYVVGLAGNAILREDKQPAKMFATIYELKEDKSYDVTSVRFEAKSCKYTIKTFVPGSQPGEFTAGYIKSAPGQTSTLVRVVSTNYNQHAMVFFKHVTQNREIFVITLYGRTKELTSELKENFIRFSKSLGLPENHIVFPVPIDQCIDG
notes: also called hNGAL mutein; not shown: C-terminal His-tag
Regarding B5, the figures for the Kd in experiment [1] and in experiment [2] were 0.95 nM and 0.547 nM, respectively. For the same molecule, the dissociation rate constant (koff) in experiment [1] amounted to 0.000114 s⁻¹; in experiment [2], 4.47e-05 s⁻¹. The kon in experiment [1] worked out at 120000 M⁻¹ s⁻¹; in experiment [2], 81700 M⁻¹ s⁻¹. In addition, the binding result in the experiment with huWISP-3, in the experiment with huCYR61 and with huWISP-2 was “no binding (tested: dilutions starting at 1000 nM)” each time.

B6: lipocalin mutein of SEQ ID NO: 25 (designed binder)
chain: QDSTSDLIPAPPLSKVPLQQNFQDNQFHGKWYVVGMAGNFRLREDKDPSKMGATIYELKEDKSYNVTQVQFDDKKCLYVIETFVPGSQPGEFTLGAIKSFPGFTSQLVRVVSTNYNQHAMVFFKKVYQNREVFWITLYGRTKELTSELKENFIRFSKSLGLPENHIVFPVPIDQCIDGSAWSHPQFEK
notes: as for B1
Consider B6, for which the results for the Kd in experiment [1] and in experiment [2] were 27.7 nM and 9.27 nM, respectively. For the same molecule, the koff in experiment [1] worked out at 0.00129 s⁻¹; in experiment [2] it was 0.000248 s⁻¹. Moreover, the association rate constant (kon) in experiment [1] was found to be 46500 M⁻¹ s⁻¹; in experiment [2], 26800 M⁻¹ s⁻¹. Also, the binding result with huWISP-3, in the experiment with huCYR61 and in the experiment with huWISP-2 was “no binding (tested: dilutions starting at 1000 nM)” throughout.

In general, Kd refers to the concentration at which binding is half-saturated. As usually defined, the koff is the first-order rate constant of dissociation. The kon is a measure of how fast the partners come together.
